T1: rabbit serum albumin (rabbit, UniProt P49065 25-608, biotin)
T1 chain: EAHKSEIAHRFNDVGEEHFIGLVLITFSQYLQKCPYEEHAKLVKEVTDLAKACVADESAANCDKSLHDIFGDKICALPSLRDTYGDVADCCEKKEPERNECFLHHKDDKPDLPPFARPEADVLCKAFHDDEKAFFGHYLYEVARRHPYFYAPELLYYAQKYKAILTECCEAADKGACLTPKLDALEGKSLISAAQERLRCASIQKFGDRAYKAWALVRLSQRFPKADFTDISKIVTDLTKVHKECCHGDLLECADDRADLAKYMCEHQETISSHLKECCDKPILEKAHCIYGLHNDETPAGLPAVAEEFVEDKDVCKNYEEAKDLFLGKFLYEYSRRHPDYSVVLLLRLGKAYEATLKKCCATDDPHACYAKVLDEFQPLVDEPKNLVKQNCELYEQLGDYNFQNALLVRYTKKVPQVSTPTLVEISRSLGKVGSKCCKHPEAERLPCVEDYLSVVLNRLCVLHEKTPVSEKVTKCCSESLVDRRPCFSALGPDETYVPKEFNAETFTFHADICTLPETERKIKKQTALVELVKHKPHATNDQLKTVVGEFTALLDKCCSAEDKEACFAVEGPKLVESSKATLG

B1: rat serum albumin (natural protein)
chain: EAHKSEIAHRFKDLGEQHFKGLVLIAFSQYLQKCPYEEHIKLVQEVTDFAKTCVADENAENCDKSIHTLFGDKLCAIPKLRDNYGELADCCAKQEPERNECFLQHKDDNPNLPPFQRPEAEAMCTSFQENPTSFLGHYLHEVARRHPYFYAPELLYYAEKYNEVLTQCCTESDKAACLTPKLDAVKEKALVAAVRQRMKCSSMQRFGERAFKAWAVARMSQRFPNAEFAEITKLATDVTKINKECCHGDLLECADDRAELAKYMCENQATISSKLQACCDKPVLQKSQCLAEIEHDNIPADLPSIAADFVEDKEVCKNYAEAKDVFLGTFLYEYSRRHPDYSVSLLLRLAKKYEATLEKCCAEGDPPACYGTVLAEFQPLVEEPKNLVKTNCELYEKLGEYGFQNAVLVRYTQKAPQVSTPTLVEAARNLGRVGTKCCTLPEAQRLPCVEDYLSAILNRLCVLHEKTPVSEKVTKCCSGSLVERRPCFSALTVDETYVPKEFKAETFTFHSDICTLPDKEKQIKKQTALAELVKHKPKATEDQLKTVMGDFAQFVDKCCKAADKDNCFATEGPNLVARSKEALA
modifications: biotin
B2: rabbit IgG Fc (domain or fragment)
chain: PSTCSKPTCPPPELLGGPSVFIFPPKPKDTLMISRTPEVTCVVVDVSQDDPEVQFTWYINNEQVRTARPPLREQQFNSTIRVVSTLPITHQDWLRGKEFKCKVHNKALPAPIEKTISKARGQPLEPKVYTMGPPREELSSRSVSLTCMINGFYPSDISVEWEKNGKAEDNYKTTPAVLDSDGSYFLYNKLSVPTSEWQRGDVFTCSVMHEALHNHYTQKSISRSPGK
modifications: biotin
B3: Ig-AMP-1 (synthetic) (peptide)
chain: VGECVRGRCSKISCCSQFGYCGKGPKYCG
B4: mouse IgG Fc (domain or fragment)
chain: VPRDCGCKPCICTVPEVSSVFIFPPKPKDVLTITLTPKVTCVVVDISKDDPEVQFSWFVDDVEVHTAQTQPREEQFNSTFRSVSELPIMHQDWLNGKEFKCRVNSAAFPAPIEKTISKTKGRPKAPQVYTIPPPKEQMAKDKVSLTCMITDFFPEDITVEWQWNGQPAENYKNTQPIMNTNGSYFVYSKLNVQKSNWEAGNTFTCSVLHEGLHNHHTEKSLSHSPGK
modifications: biotin
B5: Ig-EET-1 (synthetic) (peptide)
chain: GCQAHYWYRVWFCKQDSDCLAGCVCGPNGFCG
B6: SA21 (peptide)
chain: RLIEDICLPRWGCLWEDD
B7: Ig-AMP-3 (synthetic) (peptide)
chain: VGECVRGRCSQISCCSQFGYCGKGPKYCG

Experiments:
Test in all cases: SPR
Hs-CHR-3 (synthetic) = target: Hs-CHR-3 (synthetic)
protein A = protein A (UniProt P38507 37-477)
Ig-CON-5 (synthetic) = target: Ig-CON-5 (synthetic)
mouse IgG Fc = target: B4
rabbit IgG Fc = target: B2
rat serum albumin = target: B1
human serum albumin = human serum albumin (human, UniProt P02768 25-609, biotin)
mouse serum albumin = mouse serum albumin (mouse, UniProt P07724 25-608, biotin)
rabbit serum albumin = target: T1, rabbit serum albumin

mouse serum albumin, sequence (P07724 25-608): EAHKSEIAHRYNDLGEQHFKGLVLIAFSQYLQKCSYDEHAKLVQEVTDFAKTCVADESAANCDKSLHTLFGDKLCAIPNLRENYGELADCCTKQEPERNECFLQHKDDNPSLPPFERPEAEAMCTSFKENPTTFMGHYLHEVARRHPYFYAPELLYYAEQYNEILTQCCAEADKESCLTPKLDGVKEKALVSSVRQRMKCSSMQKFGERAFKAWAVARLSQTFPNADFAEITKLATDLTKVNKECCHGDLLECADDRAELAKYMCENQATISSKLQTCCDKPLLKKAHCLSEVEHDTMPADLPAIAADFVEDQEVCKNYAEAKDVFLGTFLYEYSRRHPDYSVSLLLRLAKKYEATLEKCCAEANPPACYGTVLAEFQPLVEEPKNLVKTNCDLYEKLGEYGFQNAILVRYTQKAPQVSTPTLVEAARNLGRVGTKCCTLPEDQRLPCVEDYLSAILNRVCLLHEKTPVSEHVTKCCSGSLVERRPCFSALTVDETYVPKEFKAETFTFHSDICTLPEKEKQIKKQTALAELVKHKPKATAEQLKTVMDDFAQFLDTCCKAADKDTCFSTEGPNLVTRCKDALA

## B1
Hs-CHR-3 (synthetic)
  Kd: 2000 nM

## B2
Protein A
  Kd: 0.167 nM
Ig-CON-5 (synthetic)
  Kd: > 30 nM

## B3
Mouse IgG Fc
  Kd: > 20000 nM
Rabbit IgG Fc
  Kd: ~1410 nM

## B4
Protein A
  Kd: 1.5 nM
Ig-CON-5 (synthetic)
  Kd: ~1200 nM

## B5
Mouse IgG Fc
  Kd: > 20000 nM
Rabbit IgG Fc
  Kd: > 20000 nM

## B6
Rat serum albumin
  Kd: 190 nM
Human serum albumin
  Kd: 650 nM
Mouse serum albumin
  Kd: 160 nM
Rabbit serum albumin
  Kd: 100 nM

## B7
Rabbit IgG Fc
  Kd: ~1850 nM

From publication PMC10977726 (2024)
